Reference: patent publication US20060036083

Molecular target: human neutrophil peptide (HNP)-1
Sequence (chain, as listed by the source): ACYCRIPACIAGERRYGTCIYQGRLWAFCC

B1: recombinant ADP-ribosyltransferase (ART)-1 with a FLAG tag, cloned from a rabbit muscle cDNA library (protein)
chain: QSHLVTRRDLFSQETPLDMAPASFDDQYVGCAAAMTAALPHLNLTEFQVNKVYADGWALASSQWRERSAWGPEWGLSTTRLPPPPAGFRDEHGVALLAYTANSPLHKEFNAAVRQAGRSRAHYLQHFSFKTLHFLLTEALQLLGRDQRMPRCRQVFRGVHGLRFRPAGPGTTVRLGGFASASLKNVAAQQFGEDTFFGIWTCLGVPIQGYSFFPGEEEVLIPPFETFQVINASRPAQGPARIYLKALGKRSSYNCEYIKEMQCKSRPCHLDNS
ADP-ribosylation of HNP-1 by ART-1 with NAD+ (RP-HPLC, MALDI mass spectrometry): peptides with a mass of 3,983 daltons (retention time 46.5 minutes), consistent with mono-ADP-ribosyl-HNP (calculated mass equivalent to 3,983 daltons), were identified
